Values belong to the molecule of their own block, whether it stands above or below them.
What was measured:
CD28 receptor [1] = biological target: T1, CD28 receptor (human, UniProt P10747 19-220); experiment: cell-based or functional assay
B7 antigen [2] = biological target: B7 antigen (UniProt P33681); experiment: cell-based or functional assay
[3] = biological target: B7Ig fusion protein (human) [IgG part: P01857]; experiment: competition of 125I-B7Ig binding to immobilized CD28Ig
B7 antigen [4] = biological target: B7 antigen (UniProt P33681); experiment: flow cytometry, direct staining of Raji cells (BL), no unlabeled BB-1
B7 antigen [5] = biological target: B7 antigen (UniProt P33681); experiment: flow cytometry, direct staining of Daudi cells (BL), no unlabeled BB-1
B7 antigen [6] = biological target: B7 antigen (UniProt P33681); experiment: flow cytometry, direct staining of 5E1 cells (B-LCL), no unlabeled BB-1
B7 antigen [7] = biological target: B7 antigen (UniProt P33681); experiment: flow cytometry, direct staining of Jijoye cells (BL), no unlabeled BB-1
B7 antigen [8] = biological target: B7 antigen (UniProt P33681); experiment: flow cytometry, direct staining of T51 cells (B-LCL), no unlabeled BB-1
B7 antigen [9] = biological target: B7 antigen (UniProt P33681); experiment: flow cytometry, direct staining of 5E1 cells after preincubation with unlabeled BB-1
B7 antigen [10] = biological target: B7 antigen (UniProt P33681); experiment: flow cytometry, direct staining of T51 cells after preincubation with unlabeled BB-1
B7 antigen [11] = biological target: B7 antigen (UniProt P33681); experiment: flow cytometry, direct staining of Raji cells after preincubation with unlabeled BB-1
B7 antigen [12] = biological target: B7 antigen (UniProt P33681); experiment: flow cytometry, direct staining of Daudi cells after preincubation with unlabeled BB-1
B7 antigen [13] = biological target: B7 antigen (UniProt P33681); experiment: flow cytometry, direct staining of Jijoye cells after preincubation with unlabeled BB-1
CD28 receptor [14] = biological target: T1, CD28 receptor; experiment: flow cytometry, direct staining of CD28+ CHO cells
CD28 receptor [15] = biological target: T1, CD28 receptor; experiment: flow cytometry, direct staining of phytohemagglutinin-stimulated T cells

Molecule: monoclonal antibody (mAb) 9.3 (anti-CD28)
[3H]-T incorporation by PBL, +Anti-CD3, Exp. 1, mAb 9.3 (immob.) (CD28 receptor [1]): 137000 cpm
[3H]-T incorporation by PBL, +Anti-CD3, Exp. 1, mAb 9.3 (soln.) (CD28 receptor [1]): 156000 cpm
[3H]-T incorporation by PBL, +Anti-CD3, Exp. 2, mAb 9.3 (soln.) (CD28 receptor [1]): 75800 cpm
[3H]-T incorporation by PBL, -Anti-CD3, Exp. 1, mAb 9.3 (immob.) (CD28 receptor [1]): 100 cpm
[3H]-T incorporation by PBL, -Anti-CD3, Exp. 1, mAb 9.3 (soln.) (CD28 receptor [1]): 300 cpm
[3H]-T incorporation by PBL, -Anti-CD3, Exp. 2, mAb 9.3 (soln.) (CD28 receptor [1]): 400 cpm
half-maximal inhibition of CD28-mediated adhesion (PM lymphoblastoid cells to CD28+ CHO cells) (CD28 receptor [1]): 10 nM
inhibition of adhesion of B7 transfected COS cells to CD28+ CHO cells when EDTA was omitted (CD28 receptor [1]): 40%
reduction of adhesion of T51 cells to CD28+ CHO cells by mAb 9.3 alone (no EDTA) (CD28 receptor [1]): 62%
reduction of adhesion of T51 cells to CD28+ CHO cells by mAb 9.3 plus EDTA (CD28 receptor [1]): 93%
mean channel fluorescence (linear fluorescence units) (CD28 receptor [14]): 116
mean channel fluorescence (linear fluorescence units) (CD28 receptor [15]): 11.3

B1: B7 antigen (ligand, UniProt P33681 35-288, looked up)
chain: VIHVTKEVKEVATLSCGHNVSVEELAQTRIYWQKEKKMVLTMMSGDMNIWPEYKNRTIFDITNNLSIVILALRPSDEGTYECVVLKYEKDAFKREHLAEVTLSVKADFPTPSISDFEIPTSNIRRIICSTSGGFPEPHLSWLENGEELNAINTTVSQDPETELYAVSSKLDFNMTTNHSFMCLIKYGHLRVNQTFNWNTTKQEHFPDNLLPSWAITLISVNGIFVICCLTYCFAPRCRERRRNERLRRESVRPV
adhesion of 51Cr-labeled T51 cells to CD28+ CHO cells relative to CD28- CHO cells, with EDTA (CD28 receptor [1]): 17 fold
adhesion of 51Cr-labeled T51 cells to CD28+ CHO cells relative to CD28- CHO cells, without EDTA (CD28 receptor [1]): 5.5 fold

Now from value to molecule:

[3H]-T incorporation by PHA blasts stimulated with B7+ CHO cells (40:1), 9.3 Fab at 10 µg/ml (CD28 receptor [1]): 132000 cpm
Molecule: mAb 9.3 (Fab fragments)

[3H]-T incorporation by PHA blasts stimulated with B7+ CHO cells (40:1), BB-1 at 10 µg/ml (B7 antigen [2]): 98300 cpm
inhibition of adhesion of Jijoye cells to CD28+ CHO cells (B7 antigen [2]): 60%
IC50 [3]: 140 nM
mean fluorescence, -COLD (B7 antigen [4]): 7.1 linear units
mean fluorescence, -COLD (B7 antigen [5]): 6.4 linear units
mean fluorescence, -COLD (B7 antigen [6]): 13 linear units
mean fluorescence, -COLD (B7 antigen [7]): 17.8 linear units
mean fluorescence, -COLD (B7 antigen [8]): 16.4 linear units
mean fluorescence, +COLD (B7 antigen [9]): 2.4 linear units
mean fluorescence, +COLD (B7 antigen [10]): 3 linear units
mean fluorescence, +COLD (B7 antigen [11]): 2.8 linear units
mean fluorescence, +COLD (B7 antigen [12]): 2.8 linear units
mean fluorescence, +COLD (B7 antigen [13]): 2.8 linear units
Molecule: mAb BB-1 (anti-B7) (antibody)

Source: patent US6830937 (Bristol-Myers Squibb, dated 2004)
